B1: Amylin: 37-amino acid monomeric polypeptide hormone co-secreted with insulin from pancreatic beta cells (peptide, listed as Homo sapiens)
chain: MGILKLQVFLIVLSVALNHLKATPIESHQVEKRKCNTATCATQRLANFLVHSSNNFGAILSSTNVGSNTYGKRNAVEVLKREPLNYLPL

Tests used:
[1] = In-vitro stability study in acetate buffer (Alzet pump model, HPLC); format: physicochemical; conditions: 20 mM acetate buffer pH 4.0, 37° C., 28 days
Description: (Alzet in-vitro protocol, DURECT Corporation, Calif., USA) following the analysis of the solutions by HPLC.
In all the cases 2 or 3 different experiments were carried out.

ob/ob female mice = test: Treatment effects on body weight and food intake, continuous infusion by Alzet mini-osmotic pump; format: in vivo; conditions: 300 or 1000 μg/Kg/day
Description: Assessment of potential treatment effect on body weight and food intake by PYY variants of the present invention is performed under blinded conditions. The test system includes 40 ob/ob female mice, each about 50 g & 12 weeks of age at study initiation, in 5 groups (n=8), housed 4 per cage.
The first week, representing the first stage of the experiment, is the first acclimatization stage, when the 12 hours light and dark cycles regime is applied at the same hours of the day (light cycle is between 6:30-18:30). The viability check and clinical signs observations are checked daily.
The second week of the experiment, is the second acclimatization stage, when the same 12 hours/12 hours light and dark cycles regime is applied. At this stage, every day at the same time each day, the following parameters are assessed: daily viability check and clinical signs observations, including for example, changes in skin, fur, eyes, mucous membranes, secretions, activity and response to handling, as well as any unusual behavior, sleep and coma; body weight measurement 3 times/week; and food consumption measurement 1 time/daily for 5 days a week.
The third stage, days 15-43 (weeks 3-6 of the experiment), is the test compound administration stage.
On day 15, an Alzet mini-osmotic pump (model 2004), is surgically inserted into each test animal, under general anesthesia. […]

[2] = in rats, in rabbits, and in humans with Paget's disease; cited from earlier work

Molecule	Purity (%) (average ± stdev) ([1]; high dose (PYY[3-36] 10.6 mg/ml; PYY variant [3-42] 12.8 mg/ml))	Purity (%) (average ± stdev) ([1]; low dose (PYY[3-36] 3.3 mg/ml; PYY variant [3-42] 3.9 mg/ml))	body weight gain (ob/ob female mice; 28 days, versus control group)	food intake (ob/ob female mice; especially during the first days of the study)	lowering of plasma calcium [2]
PYY variant: PYY splice variant skipping exon 3, residues 3-42, SEQ ID NO:75; lacks last Tyr, adds 7 C-terminal residues SEGPDLW	72.3 ± 0.2	69.2 ± 0.6	gain significantly less weight than the control group	significant effect of reduction in the food intake	–
B1	–	–	–	–	up to 20%
